Data set [1] addresses T1, Helicobacter pylori histidine kinase CheA, strain G27 (Helicobacter pylori (G27 strain), UniProt B5Z859 1-807).
T1 sequence (looked up): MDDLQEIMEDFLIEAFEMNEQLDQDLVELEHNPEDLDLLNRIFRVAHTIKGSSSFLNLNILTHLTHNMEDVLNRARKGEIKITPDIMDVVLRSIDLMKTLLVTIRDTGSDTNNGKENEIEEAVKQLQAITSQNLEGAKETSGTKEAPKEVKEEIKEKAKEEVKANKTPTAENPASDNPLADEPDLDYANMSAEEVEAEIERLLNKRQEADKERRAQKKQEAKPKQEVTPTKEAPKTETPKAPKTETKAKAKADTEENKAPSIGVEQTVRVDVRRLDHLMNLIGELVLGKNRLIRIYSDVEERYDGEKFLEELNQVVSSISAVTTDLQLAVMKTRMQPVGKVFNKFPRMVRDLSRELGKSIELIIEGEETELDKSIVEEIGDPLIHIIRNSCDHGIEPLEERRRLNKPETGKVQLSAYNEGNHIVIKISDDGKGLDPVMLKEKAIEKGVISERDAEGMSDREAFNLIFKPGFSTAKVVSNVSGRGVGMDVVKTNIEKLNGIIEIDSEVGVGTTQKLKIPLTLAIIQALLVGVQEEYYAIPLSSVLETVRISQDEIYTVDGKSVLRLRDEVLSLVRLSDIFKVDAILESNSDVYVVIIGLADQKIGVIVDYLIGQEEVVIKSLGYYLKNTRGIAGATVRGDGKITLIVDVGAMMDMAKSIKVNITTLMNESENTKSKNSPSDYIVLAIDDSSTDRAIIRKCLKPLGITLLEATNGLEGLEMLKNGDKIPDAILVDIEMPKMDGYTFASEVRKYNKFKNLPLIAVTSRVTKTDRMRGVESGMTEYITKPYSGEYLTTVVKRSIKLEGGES
The experiment in a line: kinase activity titration.

The data set “AUC” deals with the molecule itself. The experiment in a line: AUC.
In data set [2] the target is T2, CheW-CheA complex of Helicobacter pylori (Helicobacter pylori (G27 strain) | …, UniProt B5Z859 1-807; O25152 1-165).
T2 sequence (looked up) 1: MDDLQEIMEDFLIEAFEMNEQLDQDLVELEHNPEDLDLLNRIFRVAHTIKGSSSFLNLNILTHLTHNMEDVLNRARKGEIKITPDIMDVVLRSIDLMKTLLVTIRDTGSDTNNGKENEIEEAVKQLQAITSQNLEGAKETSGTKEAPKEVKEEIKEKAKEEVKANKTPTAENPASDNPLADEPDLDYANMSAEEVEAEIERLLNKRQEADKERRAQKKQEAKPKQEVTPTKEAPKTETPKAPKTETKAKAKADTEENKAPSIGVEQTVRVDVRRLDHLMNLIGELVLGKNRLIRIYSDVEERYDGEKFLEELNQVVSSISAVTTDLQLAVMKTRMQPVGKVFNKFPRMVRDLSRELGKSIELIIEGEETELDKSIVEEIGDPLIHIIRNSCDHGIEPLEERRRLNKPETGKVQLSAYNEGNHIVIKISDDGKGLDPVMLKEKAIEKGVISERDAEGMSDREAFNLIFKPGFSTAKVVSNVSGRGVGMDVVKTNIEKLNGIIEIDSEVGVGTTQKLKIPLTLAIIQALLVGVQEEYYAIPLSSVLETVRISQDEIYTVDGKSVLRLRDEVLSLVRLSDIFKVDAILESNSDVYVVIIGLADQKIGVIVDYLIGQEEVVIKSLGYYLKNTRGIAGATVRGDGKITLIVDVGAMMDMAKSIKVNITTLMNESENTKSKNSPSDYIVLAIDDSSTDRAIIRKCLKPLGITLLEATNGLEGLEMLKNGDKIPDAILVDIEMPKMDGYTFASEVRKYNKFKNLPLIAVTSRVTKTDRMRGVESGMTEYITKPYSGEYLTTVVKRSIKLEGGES
T2 sequence (looked up) 2: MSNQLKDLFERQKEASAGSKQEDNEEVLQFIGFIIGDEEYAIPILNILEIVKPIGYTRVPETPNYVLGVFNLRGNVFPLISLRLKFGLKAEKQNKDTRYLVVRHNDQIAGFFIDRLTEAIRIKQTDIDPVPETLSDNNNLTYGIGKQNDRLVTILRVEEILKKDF
The data set can be described thus: kinase activity titration.

The values below come from publication doi:10.1101/544239 (bioRxiv, 2019).

The term Kd denotes the concentration at which binding is half-saturated. Read a low Kd as a tighter complex. In general, stoichiometry N refers to the number of molecules, sites or subunits per partner or assembly.

B1: Helicobacter pylori scaffold protein CheW, strain SS1 (natural protein, Helicobacter pylori (SS1 strain), UniProt O25152 1-165, looked up)
chain: MSNQLKDLFERQKEASAGSKQEDNEEVLQFIGFIIGDEEYAIPILNILEIVKPIGYTRVPETPNYVLGVFNLRGNVFPLISLRLKFGLKAEKQNKDTRYLVVRHNDQIAGFFIDRLTEAIRIKQTDIDPVPETLSDNNNLTYGIGKQNDRLVTILRVEEILKKDF
Molecule B1 returned an equilibrium dissociation constant (Kd) in data set [1] of 14.6 µM.

B2: Helicobacter pylori transducer-like protein D (TlpD), strain SS1 (receptor)
chain: not shown
As to B2, in the data set “AUC”, the Kd stood at 0.15 µM and the “stoichiometry N” value was 2. The molecule also yielded an equilibrium dissociation constant (Kd) in data set [2] of 15.2 µM.
